Where only a bound is given, the exact number is not on record here.

The assay concerns the target HLA-A*02 (human). Put plainly: UV peptide-exchange ELISA, yield grade.
For the molecule SLFSDEFKV [SLFSDEFKV (SEQ ID NO: 23)], the peptide exchange yield was 50 to 75%.
For the molecule GLLPLLHRA [GLLPLLHRA (SEQ ID NO: 12)], the peptide exchange yield is at least 75%.
Regarding HLLEGSVGV [HLLEGSVGV (SEQ ID NO: 39)], the peptide exchange yield was 50 to 75%.
Turning to YLDLSHNQL [YLDLSHNQL (SEQ ID NO: 15)], the peptide exchange yield lay within 50 to 75%.
Molecule GIAGSLKTV [GIAGSLKTV (SEQ ID NO: 10)] registered a peptide exchange yield of 50 to 75%.
Turning to FLLATEVVTV [FLLATEVVTV (SEQ ID NO: 34)], the peptide exchange yield was at least 75%.
Turning to YIKTELISV [YIKTELISV (SEQ ID NO: 33)], the peptide exchange yield lay within 50 to 75%.
In the case of FVDPNTQEKV [FVDPNTQEKV (SEQ ID NO: 22)], the peptide exchange yield fell in the range of 20 to 49%.
The result for AIQDEIRSV [AIQDEIRSV (SEQ ID NO: 21)] reads 50 to 75%; that for SLFETAWEA [SLFETAWEA (SEQ ID NO: 44)], 50 to 75%; that for ILAPFSVDL [ILAPFSVDL (SEQ ID NO: 37)], 50 to 75%.
ALSPSYLTV [ALSPSYLTV (SEQ ID NO: 11)] returned a peptide exchange yield of 50 to 75%.
VLIDPQWVLTA [VLIDPQWVLTA (SEQ ID NO: 40)]: the peptide exchange yield lay within 50 to 75%.
SISDNVWEV [SISDNVWEV (SEQ ID NO: 19)] gave a peptide exchange yield of 50 to 75%.
In turn, ALFENTPKA [ALFENTPKA (SEQ ID NO: 41)] came in with a peptide exchange yield of 20 to 49%.
The result for LLFSRLCGA [LLFSRLCGA (SEQ ID NO: 51)] reads at least 75%.
In turn, VLNPLITAV [VLNPLITAV (SEQ ID NO: 54)] had a peptide exchange yield of 50 to 75%.
The result for ALLERGELFV [ALLERGELFV (SEQ ID NO: 47)] reads 50 to 75%; that for ILFHGVFYA [ILFHGVFYA (SEQ ID NO: 50)], 50 to 75%.
The molecule LLYPEPWSV [LLYPEPWSV (SEQ ID NO: 1)] gave a peptide exchange yield of at least 75%.
Regarding ILDHEVPSL [ILDHEVPSL (SEQ ID NO: 7)], the peptide exchange yield fell in the range of 50 to 75%.
Regarding FLVDGSYSI [FLVDGSYSI (SEQ ID NO: 9)], the peptide exchange yield fell in the range of 50 to 75%.
Take TLDEKVAEL [TLDEKVAEL (SEQ ID NO: 24)]: the peptide exchange yield lay in the range of 50 to 75%.
In turn, TMDSVLVTV [TMDSVLVTV (SEQ ID NO: 25)] registered a peptide exchange yield of 50 to 75%.
The molecule GIVAHIQEV [GIVAHIQEV (SEQ ID NO: 5)] gave a peptide exchange yield of 50 to 75%.
In turn, GLSQITNQL [GLSQITNQL (SEQ ID NO: 20)] yielded a peptide exchange yield of 50 to 75%.
For the molecule QVIEDSTGV [QVIEDSTGV (SEQ ID NO: 48)], the peptide exchange yield fell in the range of 20 to 49%.
In turn, KLEENGDLYL [KLEENGDLYL (SEQ ID NO: 3)] yielded a peptide exchange yield of at least 75%.
Regarding SLATKIVEA [SLATKIVEA (SEQ ID NO: 55)], the peptide exchange yield was in the range of 50 to 75%.
TITETTVEV [TITETTVEV (SEQ ID NO: 31)] displayed a peptide exchange yield of 50 to 75%.
Regarding ALQEELTEL [ALQEELTEL (SEQ ID NO: 26)], the peptide exchange yield was in the range of 50 to 75%.
Next, KLMPGTYTL [KLMPGTYTL (SEQ ID NO: 4)]: at least 75%; ILLDLTDNRL [ILLDLTDNRL (SEQ ID NO: 18)]: 50 to 75%; ALNIATHVL [ALNIATHVL (SEQ ID NO: 49)]: 50 to 75%.
Consider SLPNGKPVSV [SLPNGKPVSV (SEQ ID NO: 28)], for which the peptide exchange yield lay in the range of 50 to 75%.
RLMEENWNA [RLMEENWNA (SEQ ID NO: 27)] yielded a peptide exchange yield of 50 to 75%.
The result for ILAKDLFEI [ILAKDLFEI (SEQ ID NO: 14)] reads at least 75%.
Molecule ALMAMLVYV [ALMAMLVYV (SEQ ID NO: 13)] showed a peptide exchange yield of 20 to 49%.
The result for ALFDSLRHV [ALFDSLRHV (SEQ ID NO: 6)] reads 50 to 75%.
The molecule FLGPRIIGL [FLGPRIIGL (SEQ ID NO: 38)] had a peptide exchange yield of 50 to 75%.
YLLDPSITL [YLLDPSITL (SEQ ID NO: 29)]: the peptide exchange yield lay within 50 to 75%.
The result for VQLDSIEDLEV [VQLDSIEDLEV (SEQ ID NO: 32)] reads 50 to 75%; that for AMIEEVFEA [AMIEEVFEA (SEQ ID NO: 30)], 20 to 49%.
KMVGLVVAI [KMVGLVVAI (SEQ ID NO: 53)] displayed a peptide exchange yield of 50 to 75%.
The result for SLADTNSLAVV [SLADTNSLAVV (SEQ ID NO: 36)] reads 50 to 75%.
As for YTLDIPVLFGV [YTLDIPVLFGV (SEQ ID NO: 16)], the peptide exchange yield is at least 75%.
Next, LLDSVSRL [LLDSVSRL (SEQ ID NO: 42)]: below 20%; FLLPFSTVYL [FLLPFSTVYL (SEQ ID NO: 35)]: 50 to 75%.
Consider SQFPLPLAV [SQFPLPLAV (SEQ ID NO: 46)], for which the peptide exchange yield lay within 20 to 49%.

The values above are taken from patent US20170165339A1 (IMMATICS BIOTECHNOLOGIES, published 2017).
